Tests used:
[1] = biological target: T1, CD33 protein (AcroBiosystems) conjugated to biotin (UniProt P20138 18-259, biotinylated (site not stated)); test: flow cytometry; cell-surface CAR on edited T cells labelled with biotinylated CD33 protein and streptavidin-APC
T1 construct: Soluble bought reagent used at 2 ug/uL with streptavidin-APC to label cell-surface anti-CD33 CAR; also called biotinylated CD33 protein, CD3-H82E7
Protocol: About one (1) week post electroporation, gene-edited T cells were analyzed by flow cytometry to assess the percentage of the cell population that expressed an anti-CD33 CAR. Labeling of cell-surface anti-CD33 CAR was done with a combination of a CD33 protein (AcroBiosystems) conjugated to biotin and a streptavidin-APC secondary reagent (FIG. 1A, FIG. 1B and FIG. 1C). […] In contrast, certain T cells generated with a TRAC and B2M gene disruption and a CAR construct did result in a high percentage of the population that expressed an anti-CD33 CAR. […] However, not all T cells prepared with a CAR construct had CAR expression. […] Indeed, this outcome was not altered by switching the CAR co-stimulatory domain (e.g., CTX-964 compared to CTX-964b).

[2] = biological target: CD33 on the surface of human cells (AML cell lines THP-1, KG-1, MV4-11; activated primary human T cells) (human, UniProt P20138 18-364); test: cell-based or functional assay
CD33 on the surface of human cells (AML cell lines THP-1, KG-1, MV4-11; activated primary human T cells), sequence (P20138 18-364): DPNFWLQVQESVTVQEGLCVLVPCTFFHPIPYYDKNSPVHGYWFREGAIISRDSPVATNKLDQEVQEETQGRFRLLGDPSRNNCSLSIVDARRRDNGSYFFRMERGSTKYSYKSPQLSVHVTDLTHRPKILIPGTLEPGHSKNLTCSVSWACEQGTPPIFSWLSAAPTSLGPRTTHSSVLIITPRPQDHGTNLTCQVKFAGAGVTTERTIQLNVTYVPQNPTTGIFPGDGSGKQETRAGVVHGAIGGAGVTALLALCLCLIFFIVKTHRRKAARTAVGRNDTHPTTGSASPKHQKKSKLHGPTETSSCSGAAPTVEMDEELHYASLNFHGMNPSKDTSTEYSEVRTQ

T1 sequence (P20138 18-259 limits assumed): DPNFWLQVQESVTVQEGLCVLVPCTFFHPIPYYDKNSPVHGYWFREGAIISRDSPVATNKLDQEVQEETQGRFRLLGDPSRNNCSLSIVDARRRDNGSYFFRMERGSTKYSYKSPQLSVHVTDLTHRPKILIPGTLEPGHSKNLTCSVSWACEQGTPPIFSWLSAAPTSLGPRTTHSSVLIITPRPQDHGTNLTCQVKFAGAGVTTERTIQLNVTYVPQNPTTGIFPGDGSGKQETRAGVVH

binding result [1] | percent cell lysis of CD33 KO MV4-11 cells (CD33-deficient comparison) at 1:1 ratio [2] | Binder
binds | – | CTX-969 CAR (anti-CD33 CAR, Antibody B scFv VH-VL, CD28 co-stimulatory domain, CD3z) (other) QVQLVQSGAEVKKPGASVKVSCKASGYTFTNYDINWVRQAPGQGLEWIGWIYPGDGSTKYNEKFKAKATLTADTSTSTAYMELRSLRSDDTAVYYCASGYEDAMDYWGQGTTVTVSSGGGGGSGGGGSGGGGSDIQMTQSPSSLSASVGDRVTINCKASQDINSYLSWFQQKPGKAPKTLIYRANRLVDGVPSRFSGSGSGQDYTLTISSLQPEDFATYYCLQYDEFPLTFGGGTKVEIKSAAAFVPVFLPAKPTTTPAPRPPTPAPTIASQPLSLRPEACRPAAGGAVHTRGLDFACDIYIWAPLAGTCGVLLLSLVITLYCNHRNRSKRSRLLHSDYMNMTPRRPGPTRKHYQPYAPPRDFAAYRSRVKFSRSADAPAYQQGQNQLYNELNLGRREEYDVLDKRRGRDPEMGGKPRRKNPQEGLYNELQKDKMAEAYSEIGMKGERRRGKGHDGLYQGLSTATKDTYDALHMQALPPR
– | > 60% | CTX-982b CAR (anti-CD33 CAR, Antibody C scFv VH-VL, 41BB co-stimulatory domain, CD3z) (other) EVQLVQSGAEVKKPGSSVKVSCKASGYTITDSNIHWVRQAPGQSLEWIGYIYPYNGGTDYNQKFKNRATLTVDNPTNTAYMELSSLRSEDTAFYYCVNGNPWLAYWGQGTLVTVSSGGGGSGGGGSGGGGSDIQLTQSPSTLSASVGDRVTITCRASESLDNYGIRFLTWFQQKPGKAPKLLMYAASNQGSGVPSRFSGSGSGTEFTLTISSLQPDDFATYYCQQTKEVPWSFGQGTKVEVKSAAAFVPVFLPAKPTTTPAPRPPTPAPTIASQPLSLRPEACRPAAGGAVHTRGLDFACDIYIWAPLAGTCGVLLLSLVITLYCNHRNRKRGRKKLLYIFKQPFMRPVQTTQEEDGCSCRFPEEEEGGCELRVKFSRSADAPAYQQGQNQLYNELNLGRREEYDVLDKRRGRDPEMGGKPRRKNPQEGLYNELQKDKMAEAYSEIGMKGERRRGKGHDGLYQGLSTATKDTYDALHMQALPPR
binds | – | CTX-982 CAR (anti-CD33 CAR, Antibody C scFv VH-VL, CD28 co-stimulatory domain, CD3z) (other) EVQLVQSGAEVKKPGSSVKVSCKASGYTITDSNIHWVRQAPGQSLEWIGYIYPYNGGTDYNQKFKNRATLTVDNPTNTAYMELSSLRSEDTAFYYCVNGNPWLAYWGQGTLVTVSSGGGGSGGGGSGGGGSDIQLTQSPSTLSASVGDRVTITCRASESLDNYGIRFLTWFQQKPGKAPKLLMYAASNQGSGVPSRFSGSGSGTEFTLTISSLQPDDFATYYCQQTKEVPWSFGQGTKVEVKSAAAFVPVFLPAKPTTTPAPRPPTPAPTIASQPLSLRPEACRPAAGGAVHTRGLDFACDIYIWAPLAGTCGVLLLSLVITLYCNHRNRSKRSRLLHSDYMNMTPRRPGPTRKHYQPYAPPRDFAAYRSRVKFSRSADAPAYQQGQNQLYNELNLGRREEYDVLDKRRGRDPEMGGKPRRKNPQEGLYNELQKDKMAEAYSEIGMKGERRRGKGHDGLYQGLSTATKDTYDALHMQALPPR

Reference: patent US20220226375A1 (CRISPR THERAPEUTICS, published 2022)
